From patent publication US20240327502A1 (Merck Sharp & Dohme, published 2024)

Key:
[1] = target: F protein of RSV B/Washington virus (respiratory syncytial virus B, …); experiment: cell-based or functional assay
[2] = target: F protein of hMPV A virus (human metapneumovirus subtype A); experiment: cell-based or functional assay
[3] = target: F protein of hMPV B virus (human metapneumovirus subtype B); experiment: cell-based or functional assay
MPV-F (Example 7) = target: T1, MPV-F (Example 7) (human metapneumovirus, UniProt Q6WB98 19-489); experiment: ELISA on supernatant of cells transiently transfected with the MPV-F construct; antibody titrated; OD450
T1 construct: also called hMPV F monomer

R198A = target: T2, R198A; experiment: as above
T2 construct: also called MPV-F R198A

N202A = target: T3, N202A; experiment: as above
T3 construct: also called MPV-F N202A

D209Y = target: T4, D209Y; experiment: as above
T4 construct: also called MPV-F D209Y

N210A = target: T5, N210A; experiment: as above
T5 construct: also called MPV-F N210A

A216Y = target: T6, A216Y; experiment: as above
T6 construct: also called MPV-F A216Y

L219Y = target: T7, L219Y; experiment: as above
T7 construct: also called MPV-F L219Y

A249Y = target: T8, A249Y; experiment: as above
T8 construct: also called MPV-F A249Y

R253A = target: T9, R253A; experiment: as above
T9 construct: also called MPV-F R253A

R329A = target: T10, R329A; experiment: as above
T10 construct: also called MPV-F R329A

[4] = target: T11, unprocessed hMPV PreF trimeric antigen (human metapneumovirus strain B2); experiment: ELISA; Ni-NTA plate coated with Expi293 supernatant containing the His-tagged antigen; antibody titrated; OD450
T11 construct: also called unprocessed hMPV WT PreF trimer; hMPV WT trimer

[5] = target: unprocessed hMPV PreF K138Q (human metapneumovirus strain B2); experiment: as above
[6] = target: unprocessed hMPV PreF G264R (human metapneumovirus strain B2); experiment: as above
[7] = target: unprocessed hMPV PreF V231A/G264R (human metapneumovirus strain B2); experiment: as above
[8] = target: unprocessed hMPV PreF G264R/Q434H (human metapneumovirus strain B2); experiment: as above
V231A = target: T12, V231A; experiment: as above
T12 construct: also called unprocessed hMPV PreF V231A

Q434H = target: T13, Q434H; experiment: as above
T13 construct: also called unprocessed hMPV PreF Q434H

B1: M2D2 (antibody, V domains shown)
VH: QVQLVQSGAEVKKPGASVKVSCKASGYNFDNYYMSWVRQAPGQGLEWLGIIDPSGGRISYAPKFQGRVTLTRDTSTSTVYMELRGLRFEDTALYYCARLEATHEGPWGQGTLVTVSS
VL: QSVLTQPPSASGTPGQRVTISCSGSNSNIGSSTVNWYQQLPGTAPKLLIYSDNHRPSGVPDRFSGSRSGTSASLVISGLHSEDEADYYCGTWDDGLNGPYVFGTGTKVTVL
notes: IgG
For B1, the “PRNT IC50” value [1] was 0.0039 µg/mL, the “PRNT IC50” value [2] was 0.0296 µg/mL and the “PRNT IC50” value [3] was 0.0584 µg/mL. For the same binder, the “EC50 (read off the curve)” value (MPV-F (Example 7)) was ~0.02 µg/mL, the “EC50 (read off the curve)” value (R198A) was ~0.02 µg/mL and the “EC50 (read off the curve)” value (N202A) was ~0.03 µg/mL. For the same binder, the “EC50 (read off the curve)” value (D209Y) was ~0.04 µg/mL, the “EC50 (read off the curve)” value (N210A) was ~0.02 µg/mL and the “EC50 (read off the curve)” value (A216Y) was ~0.04 µg/mL. For the same binder, the “EC50 (read off the curve)” value (L219Y) was ~0.05 µg/mL, the “EC50 (read off the curve)” value (A249Y) was ~0.05 µg/mL and the “EC50 (read off the curve)” value (R253A) was ~0.04 µg/mL. The “EC50 (read off the curve)” value (R329A) was ~0.03 µg/mL, the “EC50 (read off the curve)” value [4] was ~0.004 µg/mL and the “EC50 (read off the curve)” value [5] was ~0.006 µg/mL. B1: binds [6]; binds [7]; binds [8]. The “EC50 (read off the curve)” value (V231A) was ~0.006 µg/mL and the “EC50 (read off the curve)” value (Q434H) was ~0.01 µg/mL.
